The source of these data is patent publication US12390491B2, “Compositions and methods for providing chemoprotective effects” (GTECH BIO LLC, priority 2020, dated 2025).

Holding throughout (format): cell-based
Data set [1] concerns CEM cells. The experiment in a line: GSH level by fluorometric assay, untransduced vs GCLM-transduced cells, pre- and post-busulfan exposure. How it is done:
(§1) Jurkat, CEM, and Tf-1a cell lines were transduced with a lentiviral vector that expresses GCLM and green fluorescent protein (GFP) genes. Chemoprotection experiments were performed by incubating untransduced or mixed populations of (20% transduced, 80% untransduced) cells with busulfan in concentrations ranging from 0 to 200 μg/ml for 1, 2 or 4 hours. Cells were then incubated in busulfan-free culture for 24, 48, 72 and 96 h. Area under the concentration-time curve (AUC) was estimated by using trapezoidal rule from different times and concentrations of incubation. Pre- and post-exposure GSH levels were measured with fluorometric assays. Cell survival and proliferation at different time-points were measured by Nucleocounter NC-200 and flow cytometry using PI and 7-AAD staining protocols. The chemoselection of protected GFP+ cells were evaluated by flow cytometry. Baseline GSH levels and GCLM expression were also measured in primary human HSPCs harvested from 3 different donors with fluorometric and RT-PCR assays.
(§2) The Cells are incubated with busulfan (0, 1, 2, 4, 6, 8, 10, 20, 40, 60, 80, 100 and 200 μg/ml) in serum-free media (RPMI) for 1, 2 and 4 hours. The cells were then washed with ice-cold buffer (PBS+0.5% HSA+0.1% glucose). The washed cells were cultured in RPMI+20% FBS. 24, 48, 72, and 96 h time-point measurements were done.
(§3) Jurkat, CEM, and TF-1a cell lines were transduced with a lentiviral vector that expresses GCLM and green fluorescent protein (GFP) genes (FIG. 2A). Chemoprotection experiments were performed by incubating untransduced or mixed populations of (20% transduced, 80% untransduced) cells with busulfan in concentrations ranging from low (2 to 10 ug/ml) to moderate and high (10 to 200 ug/ml) for 1 or 2 hours. Cells were then incubated and viable cell counts were documented in busulfan-free culture for the 24, 48, 72 and 96-hr timepoints (FIG. 2B). Pre- and post-transduction, and post-exposure GSH levels were measured with fluorometric assays by FACS analysis. Cell survival and proliferation were measured daily by Nucleocounter NC-200 and flow cytometry using PI and 7-AAD staining protocols. The chemo selection of protected GFP-positive cells were evaluated by flow cytometry.

The test system of data set [2] is Jurkat, CEM and TF-1a cells. The experiment in a line: Cell survival and proliferation (Nucleocounter NC-200, flow cytometry with PI and 7-AAD). The procedure: as §1, with “RT-PCR assays. […]” for “RT-PCR assays.”
(§4) Jurkat, CEM, and TF-1a cell lines were transduced with a lentiviral vector that expresses GCLM and green fluorescent protein (GFP) genes (FIG. 2A). […] Pre- and post-transduction, and post-exposure GSH levels were measured with fluorometric assays by FACS analysis. […] The chemo selection of protected GFP-positive cells were evaluated by flow cytometry.

Data set [3] relates to CEM cells. The experiment in a line: Chemoprotection experiment: busulfan exposure, then viable cell count and proliferation in busulfan-free culture. Particulars: for expansion of viable transduced cells: CEM cells; for fold expansion in viable transduced cells: at 72 h. How it is done: as §1, §2, §3
Data set [4] relates to Jurkat cells. The experiment in a line: GSH level by fluorometric assay, untransduced vs GCLM-transduced cells. Particulars: lentiviral GCLM/GFP transduction. The procedure:
as §1, §4

Data set [5] deals with TF-1a cells. Described as above. Particulars: lentiviral GCLM/GFP transduction. The procedure:
as §1, §4

For data set [6], the system named is CEM cells. The experiment in a line: Chemoselection of protected GFP+ cells by flow cytometry in mixed populations (20% transduced, 80% untransduced). The procedure: as §1, §2, §3

In the case of `CS(=O)(=O)OCCCCOS(C)(=O)=O` [busulfan, reference compound], in data set [1] (untransduced cells), the “GSH in untransduced cells after busulfan exposure” value is “depleted”. For the same molecule, the “dependence of cell death and proliferation on busulfan exposure” value in data set [2] (all cell cultures, AUC estimated by trapezoidal rule) is given as “AUC-dependent”. Further, the “sensitivity of untransduced cells to busulfan exposure” value in data set [3] (untransduced CEM cells compared with Jurkat and TF-1a) is reported as “most sensitive”. The “survival of untransduced cells after busulfan” value in data set [3] (untransduced CEM cells, higher doses (10 and 20 μg/ml), by 96 hours) is “all dead”.

B1: GCLM: Heterologous human glutamate-cysteine ligase modifier subunit (SEQ ID NO: 1) overexpressed in cells via lentiviral vector co-expressing GFP (protein)
chain: MGTDSRAAKALLARARTLHLQTGNLLNWGRLRKKCPSTHSEELHDCIQKTLNEWSSQINPDLVREFPDVLECTVSHAVEKINPDEREEMKVSAKLFIVESNSSSSTRSAVDMACSVLGVAQLDSVIIASPPIEDGVNLSLEHLQPYWEELENLVQSKKIVAIGTSDLDKTQLEQLYQWAQVKPNSNQVNLASCCVMPPDLTAFAKQFDIQLLTHNDPKELLSEASFQEALQESIPDIQAHEWVPLWLLRYSVIVKSRGIIKSKGYILQAKRRGS
Take B1: the “GSH level in transduced cells relative to untransduced cells after busulfan” value in data set [1] (CEM cells, different dose and time, 24-hr post busulfan exposure) is “at least 3.5 fold”. Moreover, the “GSH level change between untransduced and transduced cells” value came to 1.7 fold in data set [1] (CEM cells, lentiviral GCLM/GFP transduction); 2.1 fold in data set [4]; 1.9 fold in data set [5]. For the same molecule, the “GSH levels in transduced cells throughout the experiment” value in data set [1] (transduced cells, after busulfan exposure) is “remained stable”. Further, the “purity of transduced CEM cells” value in data set [6] (72 h of culture after 10 ug/ml busulfan for 1 h, starting from 20%) came to 88%. The transduced cell population amounted to 100% in data set [6] (CEM cells, 10 or 20 μg/ml busulfan, 1-hr or 2-hr exposure, by 96 hours, from 20% initial) and 100% in data set [6] (moderate levels of busulfan exposure, in 72-96 h). Besides, in data set [6] (CEM cells, 72 h of culture after 10 ug/ml busulfan for 1 h, starting from 30×10^3/ml), the “viable transduced cell count” value was 84000 mL⁻¹. Moreover, in data set [6] (busulfan doses higher than 10 ug/ml or exposure longer than 1 h, after 72 h), the “transduced cells as share of the cultures” value turned out to be 100%. Besides, in data set [2] (Jurkat, CEM and TF-1a cells, no busulfan), the “effect of GCLM overexpression on cell viability and proliferation” value is listed as “no effect”. Also, the “expansion of viable transduced cells” value was found to be 5 fold in data set [3] (10 μg/ml busulfan, by 96 hours) and 3 fold in data set [3] (20 μg/ml busulfan, by 96 hours). Moreover, the “protection (proliferation rate) against busulfan” value in data set [3] (GCLM-transduced CEM cells, lower doses of busulfan) is given as “at least 3.5 fold”. In addition, the “fold expansion in viable transduced cells” value in data set [3] (busulfan-exposed transduced cells) is given as 2.8 fold; in data set [3] (untreated (no busulfan) transduced control) it was 3.2 fold.
